B1: P1-40 (dsDNA)
DNA 1: GATCGATAAGAGACATGCCTAGACATGCCTCTTGATATCG
DNA 2: CGATATCAAGAGGCATGTCTAGGCATGTCTCTTATCGATC
B2: P1-50 (dsDNA)
DNA 1: GACGGTATCGATAAGAGACATGCCTAGACATGCCTCTTGATATCGAATTC
DNA 2: GAATTCGATATCAAGAGGCATGTCTAGGCATGTCTCTTATCGATACCGTC
B3: P1-30 (dsDNA)
DNA 1: GTAAGAGACATGCCTAGACATGCCTCATCG
DNA 2: CGATGAGGCATGTCTAGGCATGTCTCTTAC
B4: Pu52 (structured_DNA)
DNA: TTGGGGCGCTTATGGGGAGGGTGGGGAGGGTGGGGAAGGTGGGGAGGAGACT
B5: P1-22 (dsDNA)
DNA 1: GAGACATGCCTAGACATGCCTC
DNA 2: GAGGCATGTCTAGGCATGTCTC

Columns and labels:
[1] = target: p53CD (GSTp53CD, central DBD) (Homo sapiens, UniProt P04637 94-312); assay: EMSA; 50 mM KCl; EMSA: 5 mM Tris pH 7.6, 0.5 mM EDTA, 0.01% Triton X-100, 50 mM KCl, 0.5 mM DTT, on ice 20 min (30 min for plasmids); oligo EMSA with 50 ng BSA and 2.5-20 ng pBSK/EcoRV competitor; conditions: protein: recombinant; tags: GST; chain copies: 4; label: 5' 32P; blunt
Sequence of p53CD (GSTp53CD, central DBD) (P04637 94-312): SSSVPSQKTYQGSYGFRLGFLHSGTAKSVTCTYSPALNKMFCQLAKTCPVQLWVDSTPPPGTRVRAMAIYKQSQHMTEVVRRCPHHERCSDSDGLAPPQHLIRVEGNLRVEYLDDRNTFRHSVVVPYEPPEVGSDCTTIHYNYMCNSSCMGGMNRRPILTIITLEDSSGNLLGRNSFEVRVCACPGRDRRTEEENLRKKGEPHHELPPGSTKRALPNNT

p53CΔ30 = p53CΔ30 (Homo sapiens, UniProt P04637 1-363); assay: as above; conditions: protein: recombinant; chain copies: 4; label: 5' 32P; blunt
Sequence of p53CΔ30 (P04637 1-363, stated change not applied): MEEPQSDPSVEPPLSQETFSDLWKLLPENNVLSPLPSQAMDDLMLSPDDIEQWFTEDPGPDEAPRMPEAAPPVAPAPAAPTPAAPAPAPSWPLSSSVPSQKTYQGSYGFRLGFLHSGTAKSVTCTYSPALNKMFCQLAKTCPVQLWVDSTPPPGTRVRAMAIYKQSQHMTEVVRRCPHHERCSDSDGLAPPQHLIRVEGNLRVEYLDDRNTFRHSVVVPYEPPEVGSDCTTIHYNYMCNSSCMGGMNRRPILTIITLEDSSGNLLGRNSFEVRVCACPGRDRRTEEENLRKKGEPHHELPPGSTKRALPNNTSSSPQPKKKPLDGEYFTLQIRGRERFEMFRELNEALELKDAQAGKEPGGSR

[2] = target: T1, wtp53 (full-length wild-type p53) (Homo sapiens, UniProt P04637 1-393); assay: as above; conditions: protein: recombinant, chain copies: 4, label: 5' 32P
T1 sequence (P04637 whole entry): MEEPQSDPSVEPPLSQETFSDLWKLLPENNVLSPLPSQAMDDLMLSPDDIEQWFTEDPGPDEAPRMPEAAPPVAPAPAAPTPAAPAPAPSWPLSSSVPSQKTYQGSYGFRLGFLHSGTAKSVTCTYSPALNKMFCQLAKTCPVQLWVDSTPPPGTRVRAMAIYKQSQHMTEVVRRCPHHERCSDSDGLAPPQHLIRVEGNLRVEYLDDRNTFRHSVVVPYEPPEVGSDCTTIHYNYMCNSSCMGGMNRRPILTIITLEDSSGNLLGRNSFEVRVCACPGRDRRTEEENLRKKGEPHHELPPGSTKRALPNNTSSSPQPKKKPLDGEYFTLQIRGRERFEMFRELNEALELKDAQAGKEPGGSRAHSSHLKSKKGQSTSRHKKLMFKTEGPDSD

[3] = target: T1, wtp53 (full-length wild-type p53); assay: EMSA; 50 mM KCl; comparable to P1-30, lower than Pu52; EMSA: 5 mM Tris pH 7.6, 0.5 mM EDTA, 0.01% Triton X-100, 50 mM KCl, 0.5 mM DTT, on ice 20 min (30 min for plasmids); oligo EMSA with 50 ng BSA and 2.5-20 ng pBSK/EcoRV competitor; conditions: protein: recombinant; chain copies: 4; label: 5' 32P; parallel G4, annealed in 50 mM KCl
p53CT (GSTp53CT) = p53CT (GSTp53CT) (Homo sapiens, UniProt P04637 320-393); assay: EMSA; 50 mM KCl; EMSA: 5 mM Tris pH 7.6, 0.5 mM EDTA, 0.01% Triton X-100, 50 mM KCl, 0.5 mM DTT, on ice 20 min (30 min for plasmids); oligo EMSA with 50 ng BSA and 2.5-20 ng pBSK/EcoRV competitor; conditions: protein: recombinant; tags: GST; chain copies: 4; label: 5' 32P; parallel G4, 1:2:1 loops, annealed in 50 mM KCl
Sequence of p53CT (GSTp53CT) (P04637 320-393): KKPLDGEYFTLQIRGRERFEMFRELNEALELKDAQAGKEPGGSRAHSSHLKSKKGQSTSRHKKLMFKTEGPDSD

[4] = target: T1, wtp53 (full-length wild-type p53); assay: EMSA; 50 mM KCl; comparable to P1-50; EMSA: 5 mM Tris pH 7.6, 0.5 mM EDTA, 0.01% Triton X-100, 50 mM KCl, 0.5 mM DTT, on ice 20 min (30 min for plasmids); oligo EMSA with 50 ng BSA and 2.5-20 ng pBSK/EcoRV competitor; conditions: protein: recombinant; chain copies: 4; label: 5' 32P; parallel G4, 1:2:1 loops, annealed in 50 mM KCl
[5] = target: T1, wtp53 (full-length wild-type p53); assay: EMSA; 50 mM KCl; comparable to P1-22, lower than Pu52; EMSA: 5 mM Tris pH 7.6, 0.5 mM EDTA, 0.01% Triton X-100, 50 mM KCl, 0.5 mM DTT, on ice 20 min (30 min for plasmids); oligo EMSA with 50 ng BSA and 2.5-20 ng pBSK/EcoRV competitor; conditions: protein: recombinant; chain copies: 4; label: 5' 32P; parallel G4, 1:2:1 loops, annealed in 50 mM KCl

Binder	binding result [1]	binding result ([2]; blunt)	further results
B1	binds	binds	binding result (p53CΔ30): binds
AAAAAAAAAAAAAAAAAAAAAAAAAAAAAAAAAAAAAAAAAAAAAAAAAA (ssDNA) [A50]			binding result [2]: no binding
B2	binds	binds	
TGGGGAGGGTGGGGAGGGTGGGGAAGGTGGGGA (structured_DNA) [Pu33]			binding result [3]: binds
B3	binds	binds	
B4			binding result (p53CT (GSTp53CT)): binds; binding result [4]: binds
TGAGGGTGGGGAGGGTGGGGAA (structured_DNA) [Pu22]			binding result [5]: binds
B5	binds	binds	
AAAAAAAAAAAAAAAAAAAAAAAAA (ssDNA) [A25]			binding result [2]: no binding
